The source of these data is US20200079854A1 (Johns Hopkins, published 2020).

In assay [1] the target is CTNNB wt(41-49) peptide … with HLA-A3 and b2M on peptide-pulsed T2A3 cells (human). Description: flow cytometry, phage-displayed scFv on peptide-pulsed T2A3 cells (FIG. 12).
Description: (§1) Cells were stained with 10 of precipitated phage per 100 μL of cells, washed and stained with rabbit anti-M13 antibody, then washed and stained with anti-Rabbit-PE antibody. Cells were stained with a live/dead Near-IR dye, washed, and analyzed by an LSRII flow cytometer.
(§2) The pulsed cells were pelleted, washed once in cold stain buffer (PBS containing 0.5% BSA, 2 mM EDTA, and 0.1% sodium azide), and resuspended in 100 μL of stain buffer. Phage staining was performed on ice with 10 uL (approximately 1×10⁹) phage for 1 hour in 100 uL total volume, followed by one 4 mL wash in cold stain buffer. Cells were then stained with 1 uL of rabbit anti-M13 antibody (Pierce, Rockford, Ill.) in 100 uL total volume on ice for 1 hour and washed once with 4 mL of cold stain buffer. Cells were stained with anti-rabbit-PE (Biolegend) on ice for 1 hour in 100 uL total volume, followed by incubation with LIVE/DEAD Fixable Near-IR Dead Cell Stain (Thermo Fisher) for 10 min at room temperature per manufacturer's instructions. Cells were washed once in 4 mL of stain buffer followed by resuspension in 300 uL of stain buffer before analysis. Stained cells were analyzed using an LSRII flow cytometer (Becton Dickinson, Mansfield, Mass.).
In assay [2] the target is KRAS wt(7-16) peptide … with HLA-A11 and b2M on peptide-pulsed Hs611.T cells (human). Nature of the assay: flow cytometry, phage-displayed scFv on peptide-pulsed Hs611.T cells (FIG. 9).
Description: as §1, §2
Assay [3] addresses T1, IDH2 wt peptide (…) HLA-B7 biotinylated monomer (biotinylated (site not given)).
T1 construct: also called wt version of the peptide of interest in complex with the same HLA allele
Nature of the assay: phage ELISA on monomer-coated streptavidin plate (FIG. 1).

Assay [4] addresses control 1 peptide (…, artificial sequence) HLA-B7 biotinylated monomer (biotinylated (site not given)). The assay is described as above.
The target of assay [5] is control 3 peptide (…, a different peptide from wt IDH2) HLA-B7 biotinylated monomer (biotinylated (site not given)). The assay is described as above.
The target of assay [6] is T2, IDH2 wt(134-143) peptide … with HLA-B7 and b2M on cells (human).
T2 construct: peptide-pulsed RPMI-6666 cells in flow cytometry
Description: flow cytometry, phage-displayed scFv on peptide-pulsed RPMI-6666 cells (FIG. 3).
Description: Cells were stained with 10 μL of precipitated phage per 100 μL of cells, washed and stained with rabbit anti-M13 antibody, then washed and stained with anti-Rabbit-PE antibody. Cells were stained with a live/dead Near-IR dye, washed, and analyzed by an LSRII flow cytometer.
as §2

Assay [7] has as its target T3, KRAS wt(7-16) peptide … with HLA-A3 and b2M on cells (human).
T3 construct: peptide-pulsed T2A3 cells in flow cytometry
Description: flow cytometry, phage-displayed scFv on peptide-pulsed T2A3 cells (FIG. 7).
Description: as §2

B1: CTNNB_S45_FA3 c19 (scFv)
scFv: DIQMTQSPSSLSASVGDRVTITCRASQDVNTAVAWYQQKPGKAPKLLIYSAYFLYSGVPSRFSGSRSGTDFTLTISSLQPEDFATYYCQQIHYKPLTFGQGTKVEIKRTGGGSGGGGSGGGASEVQLVESGGGLVQPGGSLRLSCAASGFNVAWYSIHWVRQAPGKGLEWVAQVYGGSSYTYYADSVKGRFTISADTSKNTAYLQMNSLRAEDTAVYYCSRDFYSSGMDYWGQGTLVTVSS
As for B1, the binding result in assay [1] is reported as “no binding”.

B2: KRAS_G12D_A11_D22 (scFv)
scFv: DIQMTQSPSSLSASVGDRVTITCRASQDVNTAVAWYQQKPGKAPKLLIYSASFLYSGVPSRFSGSRSGTDFTLTISSLQPEDFATYYCQQYEYYPMTFGQGTKVEIKRTGGGSGGGGSGGGASEVQLVESGGGLVQPGGSLRLSCAASGFNVMYSTMHWVRQAPGKGLEWVASIYSWSDYTYYADSVKGRFTISADTSKNTAYLQMNSLRAEDTAVYYCSRGYAHNSFDYWGQGTLVTVSS
On to B2, for which, in assay [2], the binding result is given as “no binding”.

B3: IDH2_R140Q_B7_c129 (scFv)
scFv: DIQMTQSPSSLSASVGDRVTITCRASQDVNTAVAWYQQKPGKAPKLLIYSASFLYSGVPSRFSGSRSGTDFTLTISSLQPEDFATYYCQQGKAYWPATFGQGTKVEIKRTGGGSGGGGSGGGASEVQLVESGGGLVQPGGSLRLSCAASGFNVGHYRMHWVRQAPGKGLEWVAMVSPNGYYTYYADSVKGRFTISADTSKNTAYLQMNSLRAEDTAVYYCSRGYSSYAFDYWGQGTLVTVSS
notes: also called IDH2 R140Q(134-143)-B7 c1.29
In the case of B3, the binding result in assay [3], in assay [4], in assay [5] and in assay [6] was “no binding” in each case.

B4: KRAS G12V_A3_V12 (scFv)
scFv: DIQMTQSPSSLSASVGDRVTITCRASQDVNTAVAWYQQKPGKAPKLLIYSASFLYSGVPSRFSGSRSGTDFTLTISSLQPEDFATYYCQQASYYYPLTFGQGTKVEIKRTGGGSGGGGSGGGASEVQLVESGGGLVQPGGSLRLSCAASGFNISASGMHWVRQAPGKGLEWVADIHPLKPYTNYADSVKGRFTISADTSKNTAYLQMNSLRAEDTAVYYCSRYSSMYYYYFDYWGQGTLVTVSS
On to B4, for which the binding result in assay [7] is reported as “no binding”.

B5: CTNNB_S45_FA3_c14 (scFv)
scFv: DIQMTQSPSSLSASVGDRVTITCRASQDVNTAVAWYQQKPGKAPKLLIYSASFLYSGVPSRFSGSRSGTDFTLTISSLQPEDFATYYCQQRAYFPITFGQGTKVEIKRTGGGSGGGGSGGGASEVQLVESGGGLVQPGGSLRLSCAASGFNFSDYGMHWVRQAPGKGLEWVAMLIPASGYTNYADSVKGRFTISADTSKNTAYLQMNSLRAEDTAVYYCSRGWSYYMDYWGQGTLVTVSS
On to B5, for which the binding result in assay [1] is “no binding”.

B6: CTNNB_S45F_A3_E10 (scFv)
scFv: DIQMTQSPSSLSASVGDRVTITCRASQDVNTAVAWYQQKPGKAPKLLIYSASFLYSGVPSRFSGSRSGTDFTLTISSLQPEDFATYYCQQSYYSPPTFGQGTKVEIKRTGGGSGGGASEVQLVESGGGLVQPGGSLRLSCAASGFNINNTYIHWVRQAPGKGLEWVASIYPTDGYTRYADSVKGRFTISADTSKNTAYLQMNSLRAEDTAVYYCSRTYYSYYSAMDVWGQGTLVTVSS
Consider B6, for which the binding result in assay [1] was “no binding”.

B7: IDH2_R140Q_B7_D4 (scFv)
scFv: DIQMTQSPSSLSASVGDRVTITCRASQDVNTAVAWYQQKPGKAPKLLIYSASFLYSGVPSRFSGSRSGTDFTLTISSLQPEDFATYYCQQYSYSPPTFGQGTKVEIKRTGGGSGGGGSGGGASEVQLVESGGGLVQPGGSLRLSCAASGFNISDTYIHWVRQAPGKGLEWVASISPRTGYNRYADSVKGRFTISADTSKNTAYLQMNSLRAEDTAVYYCSRAYYSYAYAMDVWGQGTLVTVSS
B7: the binding result in assay [3], in assay [4], in assay [5] and in assay [6] was “no binding” each time.

B8: IDH2_R140Q_B7_c18 (scFv)
scFv: DIQMTQSPSSLSASVGDRVTITCRASQDVNTAVAWYQQKPGKAPKLLIYSASFLYSGVPSRFSGSRSGTDFTLTISSLQPEDFATYYCQQSYYMPFTFGQGTKVEIKRTGGGSGGGGSGGGASEVQLVESGGGLVQPGGSLRLSCAASGFNIFRGYMHWVRQAPGKGLEWVAMISPHSDYTSYADSVKGRFTISADTSKNTAYLQMNSLRAEDTAVYYCSRSYGWAAFDYWGQGTLVTVSS
B8: the binding result in assay [3], in assay [4], in assay [5] and in assay [6] was “no binding” each time.

B9: KRAS_G12D_A11_D3 (scFv)
scFv: DIQMTQSPSSLSASVGDRVTITCRASQDVNTAVAWYQQKPGKAPKLLIYSASFLYSGVPSRFSGSRSGTDFTLTISSLQPEDFATYYCQQYSYYPITFGQGTKVEIKRTGGGSGGGGSGGGASEVQLVESGGGLVQPGGSLRLSCAASGFNFSYGYMHWVRQAPGKGLEWVAWISGYTGNTYYADSVKGRFTISADTSKNTAYLQMNSLRAEDTAVYYCSRAASLSSSYYSAFDVWGQGTLVTVSS
Consider B9, for which, in assay [2], the binding result was “no binding”.

B10: KRAS_G12D_A11_D21 (scFv)
scFv: DIQMTQSPSSLSASVGDRVTITCRASQDVNTAVAWYQQKPGKAPKLLIYSASFLYSGVPSRFSGSRSGTDFTLTISSLQPEDFATYYCQQYAYYSPVTFGQGTKVEIKRTGGGSGGGGSGGGASEVQLVESGGGLVQPGGSLRLSCAASGFNIYGQMMHWVRQAPGKGLEWVAFLSPFSGNTYYADSVKGRFTISADTSKNTAYLQMNSLRAEDTAVYYCSRNISYEQSSAFDYWGQGTLVTVSS
Regarding B10, in assay [2], the binding result is listed as “no binding”.

B11: CTNNB_S45_FA3_c13 (scFv)
scFv: DIQMTQSPSSLSASVGDRVTITCRASQDVNTAVAWYQQKPGKAPKLLIYSAYFLYSGVPSRFSGSRSGTDFTLTISSLQPEDFATYYCQQIYTSPITFGQGTKVEIKRTGGGSGGGGSGGGASEVQLVESGGGLVQPGGSLRLSCAASGFNFITTGMHWVRQAPGKGLEWVARIGPGSDYTNYADSVKGRFTISADTSKNTAYLQMNSLRAEDTAVYYCSRYYYASALDYWGQGTLVTVSS
As to B11, in assay [1], the binding result is given as “no binding”.

B12: IDH2_R140Q_B7_c11 (scFv)
scFv: DIQMTQSPSSLSASVGDRVTITCRASQDVNTAVAWYQQKPGKAPKLLIYSASFLYSGVPSRFSGSRSGTDFTLTISSLQPEDFATYYCQQVYSSPFTFGQGTKVEIKRTGGGSGGGGSGGGASEVQLVESGGGLVQPGGSLRLSCAASGFNVKYYMMHWVRQAPGKGLEWVAAISPGYDYTYYADSVKGRFTISADTSKNTAYLQMNSLRAEDTAVYYCSRSYWRYSVDVWGQGTLVTVSS
notes: also called IDH2 R140Q(134-143)-B7 c1.1
Regarding B12, the binding result in assay [3], in assay [4], in assay [5] and in assay [6] was “no binding” throughout.

B13: IDH2_R140Q_B7_c13 (scFv)
scFv: DIQMTQSPSSLSASVGDRVTITCRASQDVNTAVAWYQQKPGKAPKLLIYSASFLYSGVPSRFSGSRSGTDFTLTISSLQPEDFATYYCQQYSLYSPMTFGQGTKVEIKRTGGGSGGGGSGGGASEVQLVESGGGLVQPGGSLRLSCAASGFNSFLSIHWVRQAPGKGLEWVAHIFPSSDYTSYADSVKGRFTISADTSKNTAYLQMNSLRAEDTAVYYCSRGKHSSDSNYYMDYWGQGTLVTVSS
notes: also called IDH2 R140Q(134-143)-B7 c1.3
As for B13, the binding result in assay [3], in assay [4], in assay [5] and in assay [6] was “no binding” throughout.

B14: CTNNB_S45_FA3 c17 (scFv)
scFv: DIQMTQSPSSLSASVGDRVTITCRASQDVNTAVAWYQQKPGKAPKLLIYSASFLYSGVPSRFSGSRSGTDFTLTISSLQPEDFATYYCQQQYAYTPITFGQGTKVEIKRTGGGSGGGGSGGGASEVQLVESGGGLVQPGGSLRLSCAASGFNVWSYGIHWVRQAPGKGLEWVAGVTPDGSYTYYADSVKGRFTISADTSKNTAYLQMNSLRAEDTAVYYCSRSYGWAMDYWGQGTLVTVSS
With B14, the binding result in assay [1] is reported as “no binding”.

B15: KRAS_G12D_A11_D14 (scFv)
scFv: DIQMTQSPSSLSASVGDRVTITCRASQDVNTAVAWYQQKPGKAPKLLIYSASFLYSGVPSRFSGSRSGTDFTLTISSLQPEDFATYYCQQYSYTPVTFGQGTKVEIKRTGGGSGGGGSGGGASEVQLVESGGGLVQPGGSLRLSCAASGFNVWGPGMHWVRQAPGKGLEWVARIHPFSGNTYYADSVKGRFTISADTSKNTAYLQMNSLRAEDTAVYYCSRGYSYSAMDYWGQGTLVTVSS
For the molecule B15, the binding result in assay [2] was “no binding”.

B16: KRAS_G12D_A11_D18 (scFv)
scFv: DIQMTQSPSSLSASVGDRVTITCRASQDVNTAVAWYQQKPGKAPKLLIYSASFLYSGVPSRFSGSRSGTDFTLTISSLQPEDFATYYCQQYSYEPVTFGQGTKVEIKRTGGGSGGGGSGGGASEVQLVESGGGLVQPGGSLRLSCAASGFNVSGSQMHWVRQAPGKGLEWVARIPGWSGYTYYADSVKGRFTISADTSKNTAYLQMNSLRAEDTAVYYCSRGYSYFAMDYWGQGTLVTVSS
As to B16, the binding result in assay [2] was “no binding”.
